This note sets out measurements from the Human Domainome abundance scans (Beltran et al. 2025).

The chains are these.
B1: FERM and PDZ domain-containing protein 4, residues 75 to 154; numbered along this chain, Q14CM0 (parent)
chain: APRKVEMRRDPVLGFGFVAGSEKPVVVRSVTPGGPSEGKLIPGDQIVMINDEPVSAAPRERVIDLVRSCKESILLTVIQP

± gives the uncertainty stated by the source.

The data set covers variants of B1. As to the kind of experiment: abundance fitness (aPCA) (normalised: wild type 0, dead -1); higher = more abundant; growth selection in yeast, the domain comes from the species named. The following applies: Homo sapiens.
For the variant T31Y, the abundance fitness was -0.117 ± 0.031.
With T31P, the abundance fitness is -0.59 ± 0.036.
For S21V, the abundance fitness was -0.25 ± 0.026.
Regarding S21W, the abundance fitness was -0.088 ± 0.027.
In the case of S21T, the abundance fitness is -0.12 ± 0.031.
The figure for S21R is -0.082 ± 0.022; for K39G it is -0.264 ± 0.021; for K39E it is -0.135 ± 0.027.
For the variant K39A, the abundance fitness is -0.079 ± 0.023.
As for K39W, the figure is -0.145 ± 0.025; as for K39F, -0.036 ± 0.038; as for K39P, -0.679 ± 0.04.
The figure for K39L is 0.005 ± 0.022; for K39I it is 0.005 ± 0.036; for K39S it is -0.119 ± 0.024.
As for K39Y, the figure is -0.068 ± 0.035.
With K39M, the abundance fitness is -0.045 ± 0.028.
As for K39Q, the figure is -0.032 ± 0.031.
As for K39V, the figure is -0.06 ± 0.022; as for K39R, -0.03 ± 0.02; as for K39T, -0.201 ± 0.029.
As to K39D, the abundance fitness is -0.546 ± 0.041.
As for K39C, the figure is -0.036 ± 0.03; as for K39H, -0.028 ± 0.038.
L40A: the abundance fitness is -0.871 ± 0.039.
For the variant L40I, the abundance fitness was -0.125 ± 0.045.
Take L40R: the abundance fitness was -0.978 ± 0.035.
As for L40E, the figure is -0.989 ± 0.054.
Consider L40H, for which the abundance fitness was -1.07 ± 0.12.
As for L40G, the figure is -1.01 ± 0.034; as for L40N, -0.94 ± 0.087; as for L40D, -0.965 ± 0.079.
As for L40V, the figure is -0.156 ± 0.022; as for L40Y, -1.02 ± 0.12.
For L40F, the abundance fitness is -0.8 ± 0.069.
Consider L40M, for which the abundance fitness is -0.19 ± 0.029.
In the case of L40S, the abundance fitness is -0.87 ± 0.037.
The figure for L40W is -1.07 ± 0.046.
As for L40P, the figure is -0.928 ± 0.059; as for L40T, -0.846 ± 0.055.
Turning to G33L, the abundance fitness is -0.104 ± 0.024.
Consider G33T, for which the abundance fitness was -0.157 ± 0.031.
As for G33A, the figure is -0.055 ± 0.025; as for G33Q, -0.122 ± 0.034; as for G33P, -0.871 ± 0.055.
The figure for G33R is -0.104 ± 0.022; for G33F it is -0.116 ± 0.046; for G33E it is -0.112 ± 0.03.
The figure for G33W is -0.228 ± 0.029; for G33D it is -0.024 ± 0.039; for G33S it is -0.088 ± 0.025.
On to G33N, for which the abundance fitness is -0.089 ± 0.048.
As for G33I, the figure is -0.332 ± 0.055; as for G33K, -0.064 ± 0.033; as for G33V, -0.328 ± 0.027.
The figure for G33H is -0.101 ± 0.045.
The figure for G33M is -0.124 ± 0.033.
With I41C, the abundance fitness is -0.014 ± 0.031.
Turning to I41A, the abundance fitness is 0.005 ± 0.023.
Regarding I41D, the abundance fitness is -0.063 ± 0.036.
As for P32G, the figure is -0.098 ± 0.028.
As for P32W, the figure is -0.247 ± 0.037; as for P32A, -0.029 ± 0.026; as for P32F, -0.206 ± 0.033.
The figure for P32I is -0.08 ± 0.031; for P32V it is -0.051 ± 0.025.
For the variant P32E, the abundance fitness is -0.037 ± 0.034.
As for P32M, the figure is -0.039 ± 0.031; as for P32N, -0.058 ± 0.029.
The figure for P32H is -0.046 ± 0.028; for P32K it is -0.027 ± 0.029; for P32L it is -0.083 ± 0.023.
On to P32Y, for which the abundance fitness is -0.136 ± 0.031.
With P32R, the abundance fitness was -0.05 ± 0.024.
Regarding P32T, the abundance fitness was -0.036 ± 0.026.
Regarding P32Q, the abundance fitness is -0.018 ± 0.03.
In the case of P32D, the abundance fitness was -0.075 ± 0.032.
The figure for P32S is -0.032 ± 0.024; for V30A it is -0.499 ± 0.026.
The figure for V30S is -0.743 ± 0.035; for V30I it is -0.081 ± 0.035.
As to V30L, the abundance fitness is -0.115 ± 0.024.
As for V30R, the figure is -0.914 ± 0.031; as for V30T, -0.089 ± 0.029.
Regarding V30M, the abundance fitness was -0.335 ± 0.035.
As for V30P, the figure is -0.864 ± 0.055.
The figure for V30Y is -0.521 ± 0.049; for V30E it is -0.901 ± 0.048; for V30F it is -0.416 ± 0.051.
In the case of V30Q, the abundance fitness is -0.801 ± 0.052.
As for V30D, the figure is -0.804 ± 0.065; as for V30K, -0.87 ± 0.056.
As for V30H, the abundance fitness is -0.967 ± 0.1.
For the variant V30C, the abundance fitness is -0.102 ± 0.031.
The figure for V30W is -0.756 ± 0.037; for V25D it is -0.535 ± 0.048.
As to V25Q, the abundance fitness is -0.373 ± 0.034.
As for V25L, the abundance fitness stood at 0.006 ± 0.024.
Take V25A: the abundance fitness is -0.052 ± 0.026.
As for V25G, the abundance fitness was -0.467 ± 0.025.
Take V25H: the abundance fitness is -0.135 ± 0.043.
As for V25M, the figure is 0.157 ± 0.046; as for V25S, 0 ± 0.026.
For the variant V25N, the abundance fitness is -0.23 ± 0.046.
For the variant V25Y, the abundance fitness was -0.144 ± 0.047.
The figure for V25W is -0.078 ± 0.028; for V25T it is 0.004 ± 0.031.
V25R: the abundance fitness was -0.326 ± 0.023.
As for V25K, the abundance fitness is -0.889 ± 0.068.
As for V25I, the abundance fitness was -0.116 ± 0.036.
Consider V25F, for which the abundance fitness was -0.127 ± 0.035.
As for V25C, the abundance fitness was -0.005 ± 0.032.
Consider V25E, for which the abundance fitness is -0.796 ± 0.047.
As for S29F, the abundance fitness is -0.197 ± 0.039.
Regarding S29I, the abundance fitness is -0.221 ± 0.047.
As for S29R, the figure is -0.069 ± 0.02.
S29T: the abundance fitness was -0.029 ± 0.027.
The figure for S29M is -0.083 ± 0.029; for S29G it is -0.055 ± 0.021.
As for S29P, the figure is -0.826 ± 0.044.
As to S29H, the abundance fitness is -0.139 ± 0.039.
With S29V, the abundance fitness is -0.136 ± 0.023.
As for S29W, the figure is -0.22 ± 0.024; as for S29A, -0.074 ± 0.024; as for S29N, -0.032 ± 0.041.
Regarding S29E, the abundance fitness stood at 0.007 ± 0.026.
The figure for S29K is -0.059 ± 0.032; for S29D it is -0.034 ± 0.037; for S29Y it is -0.189 ± 0.039.
Consider S29L, for which the abundance fitness is -0.152 ± 0.023.
For S29Q, the abundance fitness was -0.026 ± 0.027.
For S29C, the abundance fitness is -0.136 ± 0.03.
For P24A, the abundance fitness is -0.448 ± 0.029.
With P24R, the abundance fitness is -0.572 ± 0.025.
As for P24T, the figure is -0.471 ± 0.037.
The figure for P24L is -0.77 ± 0.037.
As to P24E, the abundance fitness was -0.51 ± 0.036.
Consider P24G, for which the abundance fitness is -0.329 ± 0.022.
As for P24V, the figure is -0.725 ± 0.034; as for P24I, -0.777 ± 0.08; as for P24F, -0.686 ± 0.076.
On to P24M, for which the abundance fitness is -0.53 ± 0.042.
For P24K, the abundance fitness was -0.64 ± 0.049.
On to P24Q, for which the abundance fitness was -0.472 ± 0.041.
As for P24C, the figure is -0.51 ± 0.045.
The figure for P24Y is -0.691 ± 0.081.
Consider P24N, for which the abundance fitness was -0.333 ± 0.054.
The figure for P24S is -0.48 ± 0.031; for P24H it is -0.501 ± 0.05.
As for P24W, the figure is -0.947 ± 0.049; as for P24D, -0.433 ± 0.05; as for E37M, -0.122 ± 0.032.
The figure for E37K is -0.176 ± 0.033; for E37T it is -0.126 ± 0.029.
As to E37F, the abundance fitness was -0.103 ± 0.038.
For E37L, the abundance fitness is -0.235 ± 0.026.
The figure for E37H is -0.09 ± 0.045; for E37R it is -0.211 ± 0.022; for E37P it is -0.985 ± 0.059.
As for E37I, the figure is -0.145 ± 0.046.
As for E37D, the abundance fitness is -0.028 ± 0.035.
The figure for E37Q is -0.034 ± 0.031; for E37V it is -0.057 ± 0.023.
As for E37G, the figure is -0.173 ± 0.021.
As for E37N, the figure is -0.106 ± 0.045; as for E37Y, -0.044 ± 0.041.
E37C: the abundance fitness is -0.046 ± 0.033.
